The source of these data is IntAct's records for PubMed 27314904.

To fix the notation:
B1: Polyglutamine-binding protein 1 (Homo sapiens), O60828 (parent)
chain: MPLPVALQTRLAKRGILKHLEPEPEEEIIAEDYDDDPVDYEATRLEGLPPSWYKVFDPSCGLPYYWNADTDLVSWLSPHDPNSVVTKSAKKLRSSNADAEEKLDRSHDKSDRGHDKSDRSHEKLDRGHDKSDRGHDKSDRDRERGYDKVDRERERDRERDRDRGYDKADREEGKERRHHRREELAPYPKSKKAVSRKDEELDPMDPSSYSDAPRGTWSTGLPKRNEAKTGADTTAAGPLFQQRPYPSPGAVLRANAEASRTKQQD
B2: WW domain-binding protein 11 (Homo sapiens), Q9Y2W2 (parent)
chain: MGRRSTSSTKSGKFMNPTDQARKEARKRELKKNKKQRMMVRAAVLKMKDPKQIIRDMEKLDEMEFNPVQQPQLNEKVLKDKRKKLRETFERILRLYEKENPDIYKELRKLEVEYEQKRAQLSQYFDAVKNAQHVEVESIPLPDMPHAPSNILIQDIPLPGAQPPSILKKTSAYGPPTRAVSILPLLGHGVPRLPPGRKPPGPPPGPPPPQVVQMYGRKVGFALDLPPRRRDEDMLYSPELAQRGHDDDVSSTSEDDGYPEDMDQDKHDDSTDDSDTDKSDGESDGDEFVHRDNGERDNNEEKKSGLSVRFADMPGKSRKKKKNMKELTPLQAMMLRMAGQEIPEEGREVEEFSEDDDEDDSDDSEAEKQSQKQHKEESHSDGTSTASSQQQAPPQSVPPSQIQAPPMPGPPPLGPPPAPPLRPPGPPTGLPPGPPPGAPPFLRPPGMPGLRGPLPRLLPPGPPPGRPPGPPPGPPPGLPPGPPPRGPPPRLPPPAPPGIPPPRPGMMRPPLVPPLGPAPPGLFPPAPLPNPGVLSAPPNLIQRPKADDTSAATIEKKATATISAKPQITNPKAEITRFVPTALRVRRENKGATAAPQRKSEDDSAVPLAKAAPKSGPSVPVSVQTKDDVYEAFMKEMEGLL

Variants of B1 are the subject of one assay. The note with it: with wbp11_human WBP11, Q9Y2W2.
For V73A, the “effect of a mutation on the interaction” value is reported as “decreasing interaction”. Same read-out and setting: the same measure for W66A: “disrupting interaction”. W75A: the “effect of a mutation on the interaction” value is “disrupting interaction”. Still for that read-out and setting: then Y65C, with “disrupting interaction”; and Y64A, with “disrupting interaction”.

The variants in a further assay derive from B2. The settings on record: with pqbp1_human PQBP1, O60828.
Regarding P462A;P463A;P464A;G465A, the “effect of a mutation on the interaction” value is “disrupting interaction”.

Variants of B2 are the subject of a further assay. The note with it: with pqbp1_human PQBP1, O60828. The source holds these as a separate data set.
For P459A;P460A;G461A, the “effect of a mutation on the interaction” value is reported as “decreasing interaction”.

The variants in another assay derive from B2. The settings on record: with pqbp1_human PQBP1, O60828. This is another data set of the same source.
For P455A;R456A;L457A;L458A, the “effect of a mutation on the interaction” value is “decreasing interaction”.

The variants in the next assay derive from B2. The settings on record: with pqbp1_human PQBP1, O60828. The source holds these as a separate data set.
With R466A;P467A;P468A;G469A, the “effect of a mutation on the interaction” value is “decreasing interaction”.
